Laboratory results taken from patent publication US20050064507A1, “Determining kinase specificity” (priority 2003, published 2005).

Target: T1, PKC-epsilon (Homo sapiens, UniProt Q02156)
T1 construct: purchased Calbiochem
T1 sequence (Q02156 1-737): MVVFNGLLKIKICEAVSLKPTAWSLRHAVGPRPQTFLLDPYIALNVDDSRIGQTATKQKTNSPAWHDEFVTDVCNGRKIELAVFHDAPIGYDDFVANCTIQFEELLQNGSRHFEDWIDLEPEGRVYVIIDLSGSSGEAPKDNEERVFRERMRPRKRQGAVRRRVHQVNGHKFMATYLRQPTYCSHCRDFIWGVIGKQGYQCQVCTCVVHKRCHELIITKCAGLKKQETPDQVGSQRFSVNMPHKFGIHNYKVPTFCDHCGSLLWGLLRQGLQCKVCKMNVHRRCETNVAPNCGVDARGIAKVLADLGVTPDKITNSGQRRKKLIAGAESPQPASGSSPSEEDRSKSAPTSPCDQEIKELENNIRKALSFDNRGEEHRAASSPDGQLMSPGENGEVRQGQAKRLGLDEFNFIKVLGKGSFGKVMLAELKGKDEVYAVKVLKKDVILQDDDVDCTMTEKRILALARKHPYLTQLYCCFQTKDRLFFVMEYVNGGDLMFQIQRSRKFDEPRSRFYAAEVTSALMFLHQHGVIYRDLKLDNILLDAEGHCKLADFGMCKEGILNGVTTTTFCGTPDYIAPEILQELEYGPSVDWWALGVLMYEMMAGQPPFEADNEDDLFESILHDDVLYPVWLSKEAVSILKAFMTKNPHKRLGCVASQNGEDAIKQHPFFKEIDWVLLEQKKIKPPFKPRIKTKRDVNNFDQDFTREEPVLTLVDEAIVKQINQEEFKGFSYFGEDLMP
Assay: In vitro kinase assay: peptide phosphorylation by PKC-epsilon
Type: biochemical
Settings: for phosphorylation by PKC epsilon: peptide concentration 1 uM; for PKC-epsilon phosphorylation: normalized to best substrate
Protocol: Catalytically active preparations of the kinases of interest were either purchased or prepared. Purchased and tested active kinase preparations including the following: PKC-alpha, PKC-delta, PKC-epsilon, PKC-zeta, PKC-mu, PKA, PKG from Calbiochem, ROK alpha/ROCK-II, active from Upstate Biotechnology, and AKT1 from Panvera.
The conditions of the kinase assay and the amount of active kinase used varied with the kinase and with the accuracy needed. For a typical experiment, 5-20 ng of kinase was used per well and each peptide pool was assayed in duplicate wells. Note that the absolute amount of kinase used was not usually a critical parameter, because the desired information related to specificity of the kinase not its absolute activity, and robustness of the assay depends on comparisons of the same amount of kinase on different peptides. The combination of kinase concentration and assay duration was modified to assure that the stoichiometry of peptide phosphorylation never exceeded 5%. The choice of kinase buffer depended on the kinase being analyzed. For studies of PKC, 100 mM HEPES, 0.05% Triton-X100, 1 mM CaCl2, 20 mM MgCl2, 0.2 mg/ml phosphatidyl serine (Avanti Polar Lipids), PMA 100 ng/ml was typically used. The lipid stock was prepared by transferring 3 mg phosphatidyl serine into iced mixture of 450 μl water plus 50 μl of 10% Triton-X100, sonicating 10 times on ice for 1 sec each.
The kinase reaction mixture was assembled by sequential addition to a tube held on ice of: 5 μl peptide (100 μM for final concentration of 10 μM), 15 μl of kinase (typically 5 ng/well, in appropriate kinase buffer), 30 μl of ATP (1 uCi/well of ^32P-gamma ATP in a stock of 167 μM cold ATP in the kinase buffer; for final concentration for 100 μM ATP). The mixture was rapidly warmed to desired reaction temperature (30° C. for PKC) and incubated for the desired duration (usually 10 minutes). The kinase assay was terminated by transfer to 4° C. water batch, and rapid addition of an equal volume (50 μl) of stop solution [0.1M ATP+0.1M EDTA in water, pH 8].
The peptides were then captured from the reaction mixture by transfer to a Reacti-Bind Streptavidin High Binding Capacity Coated Plates (HBC) (Pierce Biotechnology) as follows. The HBC plates were pre-rinsed three times with PBS/Tween PBS/Tween20 0.05% (PBS/Tween). Part of all of the reaction mixture was then transferred wells of a HBC plate pre-filled with 90 μl of phosphate-buffered saline (PBS); typically each aliquots of each phosphorylation reaction were transferred to duplicate HBC plates to assure accuracy by additional replication
For kinase assays done at the standard peptide concentration of 10 μM, the peptide concentration in the reaction mixture becomes 5 μM after addition of the stop solution; consequently 10 μl of the reaction (50 pMoles of peptide) was transferred to the HBC plate. More generally, the amount of reaction mixture transferred was estimated to be about 50 pMoles of peptide. […] The HBC plates were incubated for 0.5 to 1.5 hr at room temperature for complete binding of biotinylated peptides to plate-bound streptavidin. The HBC plates were then washed extensively with PBS/Tween. Five washes were done routinely and additional wash steps were added if the wash solution removed from the plate had measurable radioactivity as detected using a Geiger counter. This step is essential to obtaining a good the signal to noise ratio because the fraction of radioactivity incorporated in the peptides was a tiny fraction of the total in the reaction mixture. The wells were air-dried. A volume of 40-50 μl of microScint-20 (Packard Instruments) was added to each well. The plates were covered with stick-on film sheet. Radioactive emissions were measured in a TopCount NXT Microplate Scintillation and Luminescence Counter (Packard Instruments). Typically samples were counted for 5 minutes (or more) to improve the signal to noise ratio when counts were low. […]

| Substance | phosphorylation by PKC epsilon | PKC-epsilon phosphorylation [%] |
| --- | --- | --- |
| 132 (GFLNEPLSSKSQRRKSLKLK) [compound 132] | 47 | – |
| 166 (MAQIERGEARIQRRISIKKA) [compound 166] | 10 | – |
| 94 (KLAVGRHSFSRRSGV) [compound 94] | – | 13 |
| 111 (KKKRFSFKKSFKLSGFSFKK) [compound 111] | – | 12 |
| 134 (RSRSRSRSKSKDKRKSRKRS) [compound 134] | 32 | – |
| 167 (GLPAPGEDKSIYRRGSRRWR) [compound 167] | 6 | – |
| 123 (KKRFSFKKSFKLSGFSFKKN) [compound 123] | 67 | – |
| 143 (VRYTPYTISPYNRKGSFRKQ) [compound 143] | 21 | – |
| 131 (WKGKRRSKARKKRK) [compound 131] | 43 | – |
| 76 (HVRRRRGTFKRSKLRARD) [compound 76] | – | 100 |
| 142 (ERHVAQKKSRLRRRASQLKI) [compound 142] | 28 | – |
| 79 (NRKKKRTSFKRKA) [compound 79] | – | 92 |
| 129 (VQRHRSMRKTFARYLSFRRD) [compound 129] | 65 | – |
| 78 (KFARKSTRRSIRLPE) [compound 78] | – | 84 |
| 127 (SQVQKQRSAGSFKRNSIKKI) [compound 127] | 32 | – |
| 92 (DGQKRKKSLRKKLD) [compound 92] | – | 51 |
| 157 (PSPSNETPKKKKKRFSFKKS) [compound 157] | 12 | – |
| 83 (RKIPKRPGSVHRTPSRQ) [compound 83] | – | 47 |
| 154 (KKFFTQGWAGWRKKTSFRKP) [compound 154] | 29 | – |
| 100 (WKGKRRSKARKKRK) [compound 100] | – | 13 |
| 140 (TELEGGFSRQRKRKLSFRRR) [compound 140] | 27 | – |
| 119 (KKRFSFKKSFKLSGFSFKKN) [compound 119] | 81 | – |
| 117 (NRKKKRTSFKRKA) [compound 117] | 67 | – |
| 113 (GENVLKKSMKSRVKG) [compound 113] | – | 10 |

| Substance | phosphorylation by PKC epsilon | PKC-epsilon phosphorylation [%] |
| --- | --- | --- |
| 120 (AKRRRLSSLRASTSK) [compound 120] | 56 | – |
| 144 (LSSMFGTLPRKSRKGSVRKQ) [compound 144] | 24 | – |
| 137 (PSKSPSKKKKKFRTPSFLKK) [compound 137] | 32 | – |
| 77 (KKKKRASFKRKSSKKG) [compound 77] | – | 71 |
| 125 (PLKEKKRERKTSSKSSVRKR) [compound 125] | 48 | – |
| 107 (QKRHARVTVKYDRRE) [compound 107] | – | 7 |
| 93 (AARKKRISVKKKQEQ) [compound 93] | – | 40 |
| 108 (KATTKKRTLRKNDRK) [compound 108] | – | 8 |
| 85 (RFARKGSLRQKNV) [compound 85] | – | 86 |
| 156 (SAQITIPKDGQKRKKSLRKK) [compound 156] | 18 | – |
| 84 (QKKSRLRRRASQLKI) [compound 84] | – | 52 |
| 133 (LEKRGMLGKRPRRKSSRRKK) [compound 133] | 31 | – |
| 114 (KKKKRASFKRKSSKKG) [compound 114] | 100 | – |
| 82 (PRLIRRGSKKRPAR) [compound 82] | – | 72 |
| 109 (KEVVRTDSLKGRRGR) [compound 109] | – | 26 |
| 163 (PPRTPGWHQLQPRRVSFRGE) [compound 163] | 14 | – |
| 89 (EYLERRASRRRAV) [compound 89] | – | 45 |
| 103 (LLKKRDSFRTPRDSKLE) [compound 103] | – | 21 |
| 90 (AQIVKRASLKRGKQ) [compound 90] | – | 49 |
| 139 (RPTPGDGEKRSRIKKSKKRK) [compound 139] | 24 | – |
| 162 (KKKFSFKKPFKLSGLSFKRN) [compound 162] | 19 | – |
| 112 (KRPGKKGSNKRPGKR) [compound 112] | – | 11 |
| 158 (VQMTWSYPDEKNKRASVRRR) [compound 158] | 11 | – |
| 96 (RGFLRSASLGRRASFHLE) [compound 96] | – | 41 |

| Substance | phosphorylation by PKC epsilon | PKC-epsilon phosphorylation [%] |
| --- | --- | --- |
| 135 (KKKFRTPSFLKKSKK) [compound 135] | 27 | – |
| 164 (TEGKMARVAWKGKRRSKARK) [compound 164] | 12 | – |
| 138 (EYLERRASRRRAV) [compound 138] | 27 | – |
| 115 (NRKKKRTSFKRKA) [compound 115] | 91 | – |
| 95 (KKKFRTPSFLKKSKK) [compound 95] | – | 31 |
| 136 (RARRDSLKKIEIW) [compound 136] | 33 | – |
| 141 (VTDSQKRREILSRRPSYRKI) [compound 141] | 31 | – |
| 161 (KYKAFIRIPIPTRRHTFRRQ) [compound 161] | 21 | – |
| 102 (AGSFKRNSIKKIV) [compound 102] | – | 14 |
| 99 (AGWRKKTSFRKPKED) [compound 99] | – | 27 |
| 160 (PFEVVWYKDKRQLRSSKKYK) [compound 160] | 13 | – |
| 80 (KKKKKRFSFKKSFKL) [compound 80] | – | 71 |
| 124 (PRLIRRGSKKRPAR) [compound 124] | 49 | – |
| 130 (EYLERRASRRRAV) [compound 130] | 46 | – |
| 126 (KAIKAIEGGQKFARKSTRRS) [compound 126] | 69 | – |
| 106 (EILSRRPSYRKILND) [compound 106] | – | 31 |
| 118 (RPQNTLKASKKKKRASFKRK) [compound 118] | 89 | – |
| 145 (ISDFGLAKKLAVGRHSFSRR) [compound 145] | 26 | – |
| 146 (QAQRQIKRGAPPRRSSIRNA) [compound 146] | 28 | – |
| 147 (RDIRQSPKRGFLRSASLGRR) [compound 147] | 26 | – |
| 116 (EEGTFRSSIRRLSTRRR) [compound 116] | 92 | – |
| 155 (RWDKRRWRKIPKRPGSVHRT) [compound 155] | 26 | – |
| 165 (TEEKSKKRKKKHRKNSRKHK) [compound 165] | 12 | – |
